Consider ten molecules from patent publication US20230065306A1 (INHIBRX, published 2023).

For experiment [1], the target named is T1, human CD123 (full-length, on cells) (human, UniProt P26951 19-378).
T1 construct: also called CD123-FL; interleukin-3 receptor alpha chain
As to the kind of experiment: flow cytometry on HEK 293 cells transfected with full-length CD123; apparent Kd, one-site fit. How it is done: (§1) Binding of sdAbs to human CD123 was assessed by flow cytometry. […] HEK 293 cells were transiently transfected with a plasmid encoding full-length CD123 (UniProt Accession No. P26951-1; mature form, SEQ ID NO: 1) and used as the positive cell line in FIGS. 2A to 2M, and untransfected HEK 293 cells were used as CD123-negative cells. In FIG. 2N, Molm-13 cells, which express CD123, were used as the positive cell line. Each cell type was plated at 30,000 cells/well in FACS buffer (PBS 1% BSA, 0.1% NaN₃ pH 7.4) on a 96-well round-bottom plate. The sdAbs were diluted in FACS buffer in a 3-fold, 11 point serial dilution. The sdAb dilutions were added to the plated cells, and assay plates were incubated for 30 minutes at 4° C. After washing twice in 150 μL of FACS buffer, cells in each well were resuspended in 100 μL of 1:2000 Alexa Fluor 647-conjugated Anti-Human IgG secondary diluted in FACS buffer and incubated at 4° C. for 30 minutes. The cells were washed twice more, then bound antibody was detected by flow cytometry.
(§2) Flow cytometric analysis was performed on an Intellicyte iQue Plus and fluorescence was plotted as median fluorescence intensity. The apparent affinity (Kd, nM) was determined using one site binding non-linear regression in PRISM graph software.

Experiment [2] addresses T1, human CD123 (full-length, on cells). As to the kind of experiment: flow cytometry, HEK 293 cells transfected with full-length CD123 (CD123-FL); Median RL-1H. How it is done:
as §1, §2
Target sequence in this assay (P26951 19-378): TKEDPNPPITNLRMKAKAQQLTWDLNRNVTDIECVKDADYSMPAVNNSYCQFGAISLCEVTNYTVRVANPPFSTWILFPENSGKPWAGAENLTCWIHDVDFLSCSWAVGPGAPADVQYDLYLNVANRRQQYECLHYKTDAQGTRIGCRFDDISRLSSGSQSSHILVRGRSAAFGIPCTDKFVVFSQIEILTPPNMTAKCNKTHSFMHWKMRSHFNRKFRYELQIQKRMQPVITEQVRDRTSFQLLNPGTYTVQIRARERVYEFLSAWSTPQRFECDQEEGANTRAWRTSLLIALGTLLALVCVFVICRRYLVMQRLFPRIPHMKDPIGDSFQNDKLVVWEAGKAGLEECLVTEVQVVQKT

Experiment [3] shares this target. Briefly: flow cytometry blocking assay, sdAb titrated on CD123-expressing HEK-293 cells with a fixed amount of IL-3-mFc. How it is done:
Certain CD123-binding sdAbs were tested for the ability to block CD123 binding to IL-3 by titrating the sdAb onto CD123 expressing HEK-293 cells in the presence of a fixed amount of recombinant IL-3-mFc. Bound IL-3 was detected by flow cytometry using fluorophore conjugated anti-mouse IgG specific secondary antibody.
Background: Flow cytometry measures light scatter and fluorescence of single cells or particles in a stream.

Experiment [4] has as its target T2, CD123-his.
T2 construct: also called histidine tagged human CD123; His-tagged CD123 ECD
T2 extracellular domain with C-terminal His tag: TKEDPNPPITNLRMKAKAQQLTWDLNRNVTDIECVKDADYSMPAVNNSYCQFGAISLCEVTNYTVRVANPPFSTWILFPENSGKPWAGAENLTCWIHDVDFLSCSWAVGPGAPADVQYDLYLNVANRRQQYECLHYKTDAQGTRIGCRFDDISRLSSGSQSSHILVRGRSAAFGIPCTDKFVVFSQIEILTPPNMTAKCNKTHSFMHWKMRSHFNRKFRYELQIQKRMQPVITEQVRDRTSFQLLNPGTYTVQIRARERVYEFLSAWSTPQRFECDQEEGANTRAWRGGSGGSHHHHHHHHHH
As to the kind of experiment: BLI, CD123-his captured on Ni-NTA sensors, first sdAb 100 nM. How it is done:
(§3) The epitopes of single domain antibodies (sdAbs) that comprise VHH domains that bind CD123 were compared using Bio-Layer Interferometry. 5 ug/mL of histidine tagged human CD123 was immobilized on Nickel-nitrilotriacetic acid (Ni-NTA) coated capture sensors. 100 nM of one sdAb was then loaded onto the CD123 antigen and allowed to come to equilibrium. The sensors were then transferred into 100 nM of a second sdAb.
(In general: BLI is a label-free optical method that tracks binding on a fibre tip over time.)

In experiment [5] the target is T2, CD123-his. As to the kind of experiment: BLI, CD123-his on Ni-NTA sensors preloaded with hzA5v2, second sdAb 100 nM. As to the method:
as §3

B1: hz1F5v2-IgG1 (Fc fusion)
chain: EVQLVESGGGEVQPGGSLRLSCTASGRAINMYAMGWFRQAPGKEREFVAAINWNGAYTQYAESVKGRFTISRDNAKNTLYLQMSSLRAEDTAVYYCSADADYNTYVSPNKRVSYWGQGTLVTVDKTHTCPPCPAPGGPSVFLFPPKPKDTLMISRTPEVTCVVVDVSHEDPEVKFNWYVDGVEVHNAKTKPREEQYNSTYRVVSVLTVLHQDWLNGKEYKCKVSNKALPAPIEKTISKAKGQPREPQVYTLPPSRDELTKNQVSLTCLVKGFYPSDIAVEWESNGQPENNYKTTPPVLDSDGSFFLYSKLTVDKSRWQQGNVFSCSVMHEALHNHYTQKSLSLSPGK
Take B1: the Kd in experiment [1] came out at 0.92 nM. Moreover, the EC50 (read off the curve) (in general, the concentration needed to bring the measured effect to its halfway point) in experiment [2] is around 1 nM.

B2: 4F2-IgG1 (Fc fusion)
chain: EVQLVQSGGGLVQAGGSLRLSCAASGRTVSNYPMAWFRQAPGKEREFVAHISWSGITSILNSVNDRFTISRDNAKNTIYLQMNSLKPEDTAVYYCAAAQRPTAGPKGPFGYWGQGTQVTVDKTHTCPPCPAPGGPSVFLFPPKPKDTLMISRTPEVTCVVVDVSHEDPEVKFNWYVDGVEVHNAKTKPREEQYNSTYRVVSVLTVLHQDWLNGKEYKCKVSNKALPAPIEKTISKAKGQPREPQVYTLPPSRDELTKNQVSLTCLVKGFYPSDIAVEWESNGQPENNYKTTPPVLDSDGSFFLYSKLTVDKSRWQQGNVFSCSVMHEALHNHYTQKSLSLSPGK
Take B2: the Kd in experiment [1] came out at 1.37 nM. In addition, the “EC50 (read off the curve)” value in experiment [2] is 1 to 2 nM.

B3: 1B11-IgG1 (Fc fusion)
chain: QVQLVQSGGGSVQAGGSLRLSCAAAGRTQSAVAMGWFRQDPGKDRDFVAAIRWSGGNTYYADSAEGRFTISRDNAKNTVYLQMDSLKPEDTAVYSCAISMNHFGMYDYWGQGTQVTVDKTHTCPPCPAPGGPSVFLFPPKPKDTLMISRTPEVTCVVVDVSHEDPEVKFNWYVDGVEVHNAKTKPREEQYNSTYRVVSVLTVLHQDWLNGKEYKCKVSNKALPAPIEKTISKAKGQPREPQVYTLPPSRDELTKNQVSLTCLVKGFYPSDIAVEWESNGQPENNYKTTPPVLDSDGSFFLYSKLTVDKSRWQQGNVFSCSVMHEALHNHYTQKSLSLSPGK
For the molecule B3, the Kd in experiment [1] was found to be 0.52 nM. In addition, the “EC50 (read off the curve)” value in experiment [2] was around 0.6 nM.

B4: 1F5-IgG1 (Fc fusion)
chain: QVQLVQSGGGLVQAGGSLTVSCTASGRAINMYAMGWFRQAPGKEREFVAAINWNGAYTQYADSVKGRFTISRDNAKNTMYLQMNSLKPEDTAQYYCSADADYNTYVSPNKRVSYWGQGTQVTVDKTHTCPPCPAPGGPSVFLFPPKPKDTLMISRTPEVTCVVVDVSHEDPEVKFNWYVDGVEVHNAKTKPREEQYNSTYRVVSVLTVLHQDWLNGKEYKCKVSNKALPAPIEKTISKAKGQPREPQVYTLPPSRDELTKNQVSLTCLVKGFYPSDIAVEWESNGQPENNYKTTPPVLDSDGSFFLYSKLTVDKSRWQQGNVFSCSVMHEALHNHYTQKSLSLSPGK
As for B4, the Kd in experiment [1] was 0.97 nM. Moreover, the “EC50 (read off the curve)” value in experiment [2] is around 0.9 nM.

B5: A5-IgG1 (Fc fusion)
chain: EVQLVQSGGGLVQAGGSLRLSCAVSGGTFSSYGMAWFRQPPGKEREWVASNSWIAGSTYYAGSVKGRFTISRDNAKNTVYLQMNSLKPEDTAVYYCAADLLATADDEYDYWGQGTQVTVDKTHTCPPCPAPGGPSVFLFPPKPKDTLMISRTPEVTCVVVDVSHEDPEVKFNWYVDGVEVHNAKTKPREEQYNSTYRVVSVLTVLHQDWLNGKEYKCKVSNKALPAPIEKTISKAKGQPREPQVYTLPPSRDELTKNQVSLTCLVKGFYPSDIAVEWESNGQPENNYKTTPPVLDSDGSFFLYSKLTVDKSRWQQGNVFSCSVMHEALHNHYTQKSLSLSPGK
notes: No linker between VHH and Fc is stated; also called sdAb A5
Take B5: the Kd in experiment [1] came to 0.12 nM. Besides, the “IC50 (read off the curve)” value in experiment [3] was 0.3 to 0.8 nM.

B6: hzA5v2-IgG1 (Fc fusion)
chain: EVQLVESGGGEVQPGGSLRLSCAASGGTFSSYGMAWFRQAPGKEREWVASNSWIAGSTYYAESVKGRFTISRDNAKNTVYLQMSSLRAEDTAVYYCAADLLATADDEYDYWGQGTLVTVDKTHTCPPCPAPGGPSVFLFPPKPKDTLMISRTPEVTCVVVDVSHEDPEVKFNWYVDGVEVHNAKTKPREEQYNSTYRVVSVLTVLHQDWLNGKEYKCKVSNKALPAPIEKTISKAKGQPREPQVYTLPPSRDELTKNQVSLTCLVKGFYPSDIAVEWESNGQPENNYKTTPPVLDSDGSFFLYSKLTVDKSRWQQGNVFSCSVMHEALHNHYTQKSLSLSPGK
notes: also called hzA5v2 sdAb
In the case of B6, the binding result with CD123-his [4] is reported as “binds”. Moreover, the Kd in experiment [1] worked out at 0.11 nM.

B7: F3-IgG1 (Fc fusion)
chain: EVQLVQSGGGLVQAGGSLRLSCRASGRAINSYNMGWFRQAPGKEREFVSAINWNGARTYYQDALKGRFAISRDNARNTMYLQMNNLKPEDTAVYYCAAAGRWSAAVPSGEDQYNFWGQGTQVTVDKTHTCPPCPAPGGPSVFLFPPKPKDTLMISRTPEVTCVVVDVSHEDPEVKFNWYVDGVEVHNAKTKPREEQYNSTYRVVSVLTVLHQDWLNGKEYKCKVSNKALPAPIEKTISKAKGQPREPQVYTLPPSRDELTKNQVSLTCLVKGFYPSDIAVEWESNGQPENNYKTTPPVLDSDGSFFLYSKLTVDKSRWQQGNVFSCSVMHEALHNHYTQKSLSLSPGK
notes: also called sdAb F3
Regarding B7, the Kd in experiment [1] is 0.53 nM. The “EC50 (read off the curve)” value in experiment [2] was around 0.6 nM. Moreover, the “IC50 (read off the curve)” value in experiment [3] was around 1 nM.

B8: hz1B11v28-IgG1 (Fc fusion)
chain: EVQLVESGGGEVQPGGSLRLSCAASGRTQSAVAMGWFRQAPGKDRDFVAAIRWSGGNTYYAESVEGRFTISRDNAKNTVYLQMSSLRAEDTAVYSCAISLNHFGLYDYWGQGTLVTVDKTHTCPPCPAPGGPSVFLFPPKPKDTLMISRTPEVTCVVVDVSHEDPEVKFNWYVDGVEVHNAKTKPREEQYNSTYRVVSVLTVLHQDWLNGKEYKCKVSNKALPAPIEKTISKAKGQPREPQVYTLPPSRDELTKNQVSLTCLVKGFYPSDIAVEWESNGQPENNYKTTPPVLDSDGSFFLYSKLTVDKSRWQQGNVFSCSVMHEALHNHYTQKSLSLSPGK
notes: also called hz1B11v28 sdAb
Turning to B8, the binding result with CD123-his [4] is given as “binds”. In addition, in experiment [1], the Kd amounted to 0.96 nM. In addition, in experiment [2], the “EC50 (read off the curve)” value was around 0.9 nM.

B9: hzF3v22-IgG1 (Fc fusion)
chain: EVQLVESGGGLVQPGGSLRLSCAASGRAINAYNMGWFRQAPGKGREFVSAINWNAARTYYAESVKGRFTISRDNAKNTLYLQMSSLRAEDTAVYYCAASGRWSAAVPSGEDQYNFWGQGTLVTVDKTHTCPPCPAPGGPSVFLFPPKPKDTLMISRTPEVTCVVVDVSHEDPEVKFNWYVDGVEVHNAKTKPREEQYNSTYRVVSVLTVLHQDWLNGKEYKCKVSNKALPAPIEKTISKAKGQPREPQVYTLPPSRDELTKNQVSLTCLVKGFYPSDIAVEWESNGQPENNYKTTPPVLDSDGSFFLYSKLTVDKSRWQQGNVFSCSVMHEALHNHYTQKSLSLSPGK
notes: also called hzF3v22 sdAb
As to B9, the binding result with CD123-his [5] is “binds”. Besides, in experiment [1], the Kd stood at 0.59 nM. The “EC50 (read off the curve)” value in experiment [2] is around 0.7 nM.

B10: hzF3v26-IgG1 (Fc fusion)
chain: EVQLVESGGGLVQPGGSLRLSCRASGRAINAYNMGWFRQAPGKGREFVSAINWNAARTYYAESVKGRFTISRDNAKNTLYLQMSSLRAEDTAVYYCAASGRWSAAVPSGEDQYNFWGQGTLVTVDKTHTCPPCPAPGGPSVFLFPPKPKDTLMISRTPEVTCVVVDVSHEDPEVKFNWYVDGVEVHNAKTKPREEQYNSTYRVVSVLTVLHQDWLNGKEYKCKVSNKALPAPIEKTISKAKGQPREPQVYTLPPSRDELTKNQVSLTCLVKGFYPSDIAVEWESNGQPENNYKTTPPVLDSDGSFFLYSKLTVDKSRWQQGNVFSCSVMHEALHNHYTQKSLSLSPGK
On to B10, for which the Kd in experiment [1] was found to be 0.93 nM. Moreover, the “EC50 (read off the curve)” value in experiment [2] was around 1 nM.
